In article doi:10.1101/2021.02.17.431740 (bioRxiv, 2021):
Non-standard residues stand in square brackets, D forms with d. pY = N[C@@H](Cc1ccc(OP(=O)(O)O)cc1)C(=O)O

What was measured:
[1] = biological target: recombinant full-length human Grb2 (human, UniProt P62993-1 1-217); experiment: ITC
[2] = biological target: recombinant full-length human CrkII (human, UniProt P46108-1 1-304); experiment: ITC
Sequence of recombinant full-length human CrkII (P46108 whole entry): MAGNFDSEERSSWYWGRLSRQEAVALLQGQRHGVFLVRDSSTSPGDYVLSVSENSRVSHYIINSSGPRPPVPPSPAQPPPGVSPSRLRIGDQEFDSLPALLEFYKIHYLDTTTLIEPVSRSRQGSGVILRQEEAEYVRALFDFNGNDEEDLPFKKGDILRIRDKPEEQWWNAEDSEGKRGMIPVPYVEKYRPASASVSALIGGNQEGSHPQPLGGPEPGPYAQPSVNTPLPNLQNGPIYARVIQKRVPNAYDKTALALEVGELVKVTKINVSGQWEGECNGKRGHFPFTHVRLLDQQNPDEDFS

Sequence of recombinant full-length human Grb2 (P62993 whole entry): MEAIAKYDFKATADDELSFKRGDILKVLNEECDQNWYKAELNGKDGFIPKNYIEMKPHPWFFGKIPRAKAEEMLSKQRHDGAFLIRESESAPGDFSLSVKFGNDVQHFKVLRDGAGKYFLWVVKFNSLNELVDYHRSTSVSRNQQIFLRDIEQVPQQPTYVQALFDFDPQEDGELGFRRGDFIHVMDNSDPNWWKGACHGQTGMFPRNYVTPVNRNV

Question: With Ac-T[pY]SNLGQ-NH2 [PEAK3 phosphorylated peptide Ac-T(pY)SNLGQ-NH2] as the binder, how does the “stoichiometry N” value [1] read?
Answer: Its value is 1.

Question: And the Kd [2]?
Answer: Its Kd is 7.8 µM.

Question: What about the “stoichiometry N” value [2] of the same binder?
Answer: Its value is 1.
